For the experiment, the target named is IL-27 receptor (on BL-2 cells) (human) (UniProt Q6UWB1). The experiment can be described thus: cell-based or functional assay.
Chain of IL-27 receptor (on BL-2 cells) (human) (Q6UWB1 33-636, chain 1 of 2): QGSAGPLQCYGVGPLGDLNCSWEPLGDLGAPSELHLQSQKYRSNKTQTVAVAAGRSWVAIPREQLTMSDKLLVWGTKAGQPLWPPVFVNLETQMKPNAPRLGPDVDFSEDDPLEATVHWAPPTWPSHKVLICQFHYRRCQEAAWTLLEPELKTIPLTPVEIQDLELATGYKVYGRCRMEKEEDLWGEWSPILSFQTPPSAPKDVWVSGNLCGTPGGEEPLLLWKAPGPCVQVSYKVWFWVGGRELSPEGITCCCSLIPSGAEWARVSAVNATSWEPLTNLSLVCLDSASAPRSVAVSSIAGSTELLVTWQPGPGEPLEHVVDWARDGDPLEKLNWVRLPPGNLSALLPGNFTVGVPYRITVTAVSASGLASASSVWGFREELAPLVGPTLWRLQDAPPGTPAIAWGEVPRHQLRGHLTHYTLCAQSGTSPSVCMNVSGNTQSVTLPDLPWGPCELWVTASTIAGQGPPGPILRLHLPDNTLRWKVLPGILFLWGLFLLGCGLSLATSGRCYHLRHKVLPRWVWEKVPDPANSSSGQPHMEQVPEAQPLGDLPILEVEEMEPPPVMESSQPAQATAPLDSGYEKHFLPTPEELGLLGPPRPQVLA
Chain of IL-27 receptor (on BL-2 cells) (human) (P40189 23-918, chain 2 of 2, further chain): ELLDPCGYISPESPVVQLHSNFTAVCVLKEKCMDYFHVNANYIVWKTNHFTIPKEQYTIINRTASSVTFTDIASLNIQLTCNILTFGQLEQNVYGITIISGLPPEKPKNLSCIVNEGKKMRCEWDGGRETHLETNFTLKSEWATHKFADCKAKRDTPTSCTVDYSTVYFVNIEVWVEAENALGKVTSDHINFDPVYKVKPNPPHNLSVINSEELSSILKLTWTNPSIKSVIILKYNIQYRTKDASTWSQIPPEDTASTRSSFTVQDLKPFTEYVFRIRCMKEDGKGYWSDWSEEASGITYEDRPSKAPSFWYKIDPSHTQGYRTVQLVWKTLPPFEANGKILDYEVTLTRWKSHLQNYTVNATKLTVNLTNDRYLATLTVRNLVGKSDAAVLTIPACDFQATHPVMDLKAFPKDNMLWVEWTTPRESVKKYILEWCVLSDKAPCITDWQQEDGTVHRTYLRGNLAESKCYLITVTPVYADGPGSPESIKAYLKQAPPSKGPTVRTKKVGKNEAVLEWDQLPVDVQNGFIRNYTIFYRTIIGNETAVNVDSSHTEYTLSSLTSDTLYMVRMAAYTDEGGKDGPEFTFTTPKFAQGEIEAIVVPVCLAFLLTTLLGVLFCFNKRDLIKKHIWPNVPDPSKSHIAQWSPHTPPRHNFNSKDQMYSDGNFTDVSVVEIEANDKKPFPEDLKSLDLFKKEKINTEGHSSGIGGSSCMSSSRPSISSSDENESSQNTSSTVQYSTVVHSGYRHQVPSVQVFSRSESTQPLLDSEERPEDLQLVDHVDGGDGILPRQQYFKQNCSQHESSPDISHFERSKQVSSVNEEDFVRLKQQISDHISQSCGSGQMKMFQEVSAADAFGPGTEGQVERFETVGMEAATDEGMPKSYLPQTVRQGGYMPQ

Consider “IL-27alpha^L162C,T238A,S240A (mutein of the alpha-subunit of human Interleukin 27) (from UniProt Q8NEV9 29-243) (ligand)”, for which the STAT1 activation (immunoblotting against phosphorylated STAT1), BL-2 cells, 60 minutes, 1000 ng/mL (fold over IL-27alpha^L162C) was 8.5.

The values above are taken from US20220380426A1.
